From PMC6680903 (Molecules, 2019) come the findings set out here.

In assay [1] the target is T1, β2-Microglobulin (Homo sapiens, UniProt P61769).
T1 construct: human β2-microglobulin; Amine-coupled to a CM5 chip (150 RU); also called antigen β2M; source: expressed and purified as previously described [27]
Kind of assay: SPR; Biacore T200; β2M immobilised on a CM5 chip to 150 RU; VHH samples after the modification procedure (NHS-Fluo:VHH 0, 1, 5 or 20; 2 h at 4 °C, ultrafiltration) in 2-fold serial dilution, 30 μL/min, HBS-EP+, 25 °C; 1:1 model with drift and RI2. The note with it: both partners purified. (In general: Surface plasmon resonance follows binding to a sensor surface in real time, without labels.)

In assay [2] the target is T1, β2-Microglobulin. Kind of assay: SPR; Biacore T200; β2M immobilised on a CM5 chip to 150 RU; VHH samples 'Origin' (no treatment) in 2-fold serial dilution, 30 μL/min, HBS-EP+, 25 °C; 1:1 model with drift and RI2. Particulars: both partners purified.
In the next assay the target is T2, β2-Microglobulin (β2M) (Homo sapiens, UniProt P61769).
T2 construct: β2-microglobulin, human (the title says anti-human β2-microglobulin VHHs); Probably the mature protein without the signal peptide (surmised); also called antigen β2M; human β2-microglobulin; source: expressed and purified as previously described [27]
T2 sequence (P61769 21-119): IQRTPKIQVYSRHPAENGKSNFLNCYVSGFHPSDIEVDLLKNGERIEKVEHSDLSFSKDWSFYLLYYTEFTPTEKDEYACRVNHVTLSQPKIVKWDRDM
Kind of assay: SPR; Biacore T200; β2M immobilized on a CM5 chip to 150 RU; 2-fold serial diluted VHH at 30 μL/min in HBS-EP+; 25 °C; 1:1 binding model; VHH samples after incubation with NHS-Fluo at molar ratio 0 (negative control), 1, 5 or 20 and ultrafiltration. The note with it: both partners purified.

Assay [3] concerns the target T1, β2-Microglobulin. Kind of assay: SPR; Biacore T200; β2M immobilised on a CM5 chip to 150 RU; VHH samples after the modification procedure (NHS-Fluo:VHH 0, 1, 5 or 20; 2 h at 4 °C, ultrafiltration) in 2-fold serial dilution, 30 μL/min, HBS-EP+, 25 °C; 1:1 model with drift and RI2.
Assay [4] concerns the target T1, β2-Microglobulin. Kind of assay: SPR; Biacore T200; β2M immobilised on a CM5 chip to 150 RU; VHH samples 'Origin' (no treatment) in 2-fold serial dilution, 30 μL/min, HBS-EP+, 25 °C; 1:1 model with drift and RI2. Particulars: both partners purified. This is another data set of the same source.
In assay [5] the target is T1, β2-Microglobulin. Kind of assay: SPR; Biacore T200; β2M immobilised on a CM5 chip to 150 RU; VHH samples after the modification procedure (NHS-Fluo:VHH 0, 1, 5 or 20; 2 h at 4 °C, ultrafiltration) in 2-fold serial dilution, 30 μL/min, HBS-EP+, 25 °C; 1:1 model with drift and RI2. Particulars: both partners purified. The source holds these as a separate data set.

T1 sequence (P61769 21-119): as above

B1: NB-1 modified with 20 times of NHS-Fluo (VHH)
VHH: QVQLVESGGGLVQAGGSLRLSCAASGSTLDSYYIGWFRQAPGKEREGVSCISSSGNSIRYVDSVKDRFTISRDNGKNTAYLHINSLRPEDTAVYYCAASRRGRKPGLPCSLVRERYAYWGQGTQVTVSS
notes: as the VHH domain of Dm2; flexible (G4S)4 linker between the VHH domain and the His6 tag, written out from '(G4S)4'; also called NB-1-20; labeled NB-1; source: E. coli SHuffle T7, purified (HisTrap HP), modified with NHS-Fluo, ultrafiltration
As a reminder, the koff is a measure of how fast the partners let go of each other. A word on the kon: it is a measure of how fast the partners come together. In the assay with β2-Microglobulin [1], B1 yielded a koff of 0.00863 s⁻¹ and a kon of 29000 M⁻¹ s⁻¹.

B2: NB-2 (VHH)
VHH: QVQLVESGGGLVQHGGSLRLSCAASGSAFSTYSMTWHRQAPGKGREWVAGVDRSNSDTNYADSVKGRFTIYRDNAQNTVYLRMNSLKPEDTAVYYCSAERLDGSVRREYWGQGTQVTVSS
notes: VHH domain of NB-2; flexible (G4S)4 linker between the VHH domain and the His6 tag, written out from '(G4S)4'; VHH-(G4S)4-His6; Template of the homology model: PDB 5IML (GMQE 0.92). 'Origin' = no treatment; '0' = negative control; also called NB-2-Origin; NB-2-0; source: E. coli SHuffle T7, purified (HisTrap HP)
In general, Kd refers to the concentration at which binding is half-saturated. In the assay with β2-Microglobulin [2], B2 yielded a Kd of 356 nM, an off-rate constant (koff) of 0.00218 s⁻¹ and a kon of 6120 M⁻¹ s⁻¹. Besides, in the assay with β2-Microglobulin [1], the koff worked out at 0.00257 s⁻¹ and the kon turned out to be 3540 M⁻¹ s⁻¹.

B3: NB-2 modified by a 20 fold amount of NHS-Fluo (VHH)
VHH: QVQLVESGGGLVQHGGSLRLSCAASGSAFSTYSMTWHRQAPGKGREWVAGVDRSNSDTNYADSVKGRFTIYRDNAQNTVYLRMNSLKPEDTAVYYCSAERLDGSVRREYWGQGTQVTVSS
notes: VHH domain as in m4 (NB-2); flexible (G4S)4 linker between the VHH domain and the 6xHis-tag, written out from the printed formula; Heterogeneous product of random amino modification; also called modified NB-2; NB-2 20:1; source: E. coli SHuffle T7, purified (HisTrap HP), then modified with NHS-Fluo (2 h, 4 °C), ultrafiltration
Take B3: the Kd with β2-Microglobulin (β2M) was 42.3 µM.

B4: NB-2 modified with 20 times of NHS-Fluo (VHH)
VHH: QVQLVESGGGLVQHGGSLRLSCAASGSAFSTYSMTWHRQAPGKGREWVAGVDRSNSDTNYADSVKGRFTIYRDNAQNTVYLRMNSLKPEDTAVYYCSAERLDGSVRREYWGQGTQVTVSS
notes: as the VHH domain of Dm6; flexible (G4S)4 linker between the VHH domain and the His6 tag, written out from '(G4S)4'; A mixture of isomers with different numbers and places of fluorescein; also called NB-2-20; source: E. coli SHuffle T7, purified (HisTrap HP), modified with NHS-Fluo, ultrafiltration
B4: in the assay with β2-Microglobulin [1], the koff is 0.00328 s⁻¹ and the kon is 77.4 M⁻¹ s⁻¹.

B5: NB-2 modified with 1 time of NHS-Fluo (VHH)
VHH: QVQLVESGGGLVQHGGSLRLSCAASGSAFSTYSMTWHRQAPGKGREWVAGVDRSNSDTNYADSVKGRFTIYRDNAQNTVYLRMNSLKPEDTAVYYCSAERLDGSVRREYWGQGTQVTVSS
notes: as the VHH domain of Dm6; flexible (G4S)4 linker between the VHH domain and the His6 tag, written out from '(G4S)4'; A mixture of isomers with different numbers and places of fluorescein; also called NB-2-1; source: E. coli SHuffle T7, purified (HisTrap HP), modified with NHS-Fluo, ultrafiltration
In the assay with β2-Microglobulin [1], B5 registered a dissociation constant Kd of 2.53 µM, a koff of 0.00403 s⁻¹ and a kon of 1600 M⁻¹ s⁻¹.

B6: NB-2 (anti-β2M VHH, unmodified), VHH-(G4S)4-His6 (VHH)
VHH: QVQLVESGGGLVQHGGSLRLSCAASGSAFSTYSMTWHRQAPGKGREWVAGVDRSNSDTNYADSVKGRFTIYRDNAQNTVYLRMNSLKPEDTAVYYCSAERLDGSVRREYWGQGTQVTVSS
notes: VHH domain of NB-2; flexible (G4S)4 linker between the VHH domain and the 6xHis-tag, written out from the printed formula; Homology model built on template PDB 5IML (GMQE 0.92), a template only; also called NB-2-origin; NB-2-0; source: E. coli SHuffle T7, purified (HisTrap HP)
Take B6: in the assay with β2-Microglobulin (β2M), the Kd was determined as 0.726 µM and the “fold increase of KD against the sample without any treatment” value was approximately 2 fold.

B7: NB-2 modified with 5 times of NHS-Fluo (VHH)
VHH: QVQLVESGGGLVQHGGSLRLSCAASGSAFSTYSMTWHRQAPGKGREWVAGVDRSNSDTNYADSVKGRFTIYRDNAQNTVYLRMNSLKPEDTAVYYCSAERLDGSVRREYWGQGTQVTVSS
notes: as the VHH domain of Dm6; flexible (G4S)4 linker between the VHH domain and the His6 tag, written out from '(G4S)4'; A mixture of isomers with different numbers and places of fluorescein; also called NB-2-5; source: E. coli SHuffle T7, purified (HisTrap HP), modified with NHS-Fluo, ultrafiltration
In the assay with β2-Microglobulin [1], B7 gave a Kd of 9.37 µM, a koff of 0.00554 s⁻¹ and a kon of 591 M⁻¹ s⁻¹.

B8: NB-4 modified with 1 time of NHS-Fluo (VHH)
VHH: QVQLVESGGGLVEPGGSVRLSCAVSGNIVSISTVGWYRQAPGKQRELVASITGGGTTNYGDFVNGRFSIYRDNAPNRVYLHMSTLRPDDTAVYYCNARAGGSGSGSDPYDYWGVGTQVTVSS
In the assay with β2-Microglobulin [3], B8 yielded a Kd of 26.2 µM, a koff of 0.00315 s⁻¹ and a kon of 120 M⁻¹ s⁻¹.

B9: NB-4 (VHH)
VHH: QVQLVESGGGLVEPGGSVRLSCAVSGNIVSISTVGWYRQAPGKQRELVASITGGGTTNYGDFVNGRFSIYRDNAPNRVYLHMSTLRPDDTAVYYCNARAGGSGSGSDPYDYWGVGTQVTVSS
notes: VHH domain of NB-4; flexible (G4S)4 linker between the VHH domain and the His6 tag, written out from '(G4S)4'; VHH-(G4S)4-His6; Template of the homology model: PDB 5IMK (GMQE 0.85). 'Origin' = no treatment; '0' = negative control; also called NB-4-Origin; NB-4-0; source: E. coli SHuffle T7, purified (HisTrap HP)
In the assay with β2-Microglobulin [4], B9 displayed a Kd of 289 nM, a koff of 0.0028 s⁻¹ and a kon of 9700 M⁻¹ s⁻¹. Also, in the assay with β2-Microglobulin [5], the Kd was 536 nM, the koff came to 0.003 s⁻¹ and the kon is 5600 M⁻¹ s⁻¹.

B10: NB-4 (anti-β2M VHH, unmodified), VHH-(G4S)4-His6 (VHH)
VHH: QVQLVESGGGLVEPGGSVRLSCAVSGNIVSISTVGWYRQAPGKQRELVASITGGGTTNYGDFVNGRFSIYRDNAPNRVYLHMSTLRPDDTAVYYCNARAGGSGSGSDPYDYWGVGTQVTVSS
notes: VHH domain of NB-4; flexible (G4S)4 linker between the VHH domain and the 6xHis-tag, written out from the printed formula; Homology model built on template PDB 5IMK (GMQE 0.85), a template only; also called NB-4-origin; NB-4-0; source: E. coli SHuffle T7, purified (HisTrap HP)
Regarding B10, in the assay with β2-Microglobulin (β2M), the “fold increase of KD against the sample without any treatment” value was approximately 2 fold.
